Reference: the Immune Epitope Database (IEDB)

Experiments:
[1] = target: HLA-B*45:01; assay: IEDB peptide-MHC binding, purified MHC/competitive/radioactivity; filed as Kd, often an IC50 or EC50 that approximates it; ≥ and ≤ were set here for values at or beyond the usual limits of such assays
[2] = target: HLA-B*40:01; assay: as above
[3] = target: HLA-B*40:02; assay: as above
[4] = target: HLA-B*44:02; assay: as above
[5] = target: HLA-B*44:03; assay: as above
[6] = target: HLA-B*18:01; assay: as above
[7] = target: HLA-B*07:02; assay: as above
[8] = target: HLA-A*11:01; assay: IEDB peptide-MHC binding, purified MHC/direct/fluorescence; filed as Kd, often an IC50 or EC50 that approximates it; ≥ and ≤ were set here for values at or beyond the usual limits of such assays
[9] = target: HLA-B*08:01; assay: as above
[10] = target: HLA-B*40:01; assay: as above
[11] = target: HLA-A*31:01; assay: as above
[12] = target: HLA-B*15:01; assay: as above
[13] = target: HLA-B*44:02; assay: as above
[14] = target: HLA-B*58:01; assay: as above
[15] = target: HLA-A*69:01; assay: as above
[16] = target: HLA-A*03:01; assay: as above
[17] = target: HLA-A*02:01; assay: as above
[18] = target: HLA-B*27:05; assay: as above
[19] = target: HLA-B*07:02; assay: as above
[20] = target: HLA-A*01:01; assay: as above
[21] = target: HLA-A*26:01; assay: as above
[22] = target: HLA-A*24:02; assay: IEDB peptide-MHC binding, purified MHC/competitive/fluorescence; ≥ and ≤ were set here for values at or beyond the usual limits of such assays
[23] = target: HLA-A*02:01; assay: as above
[24] = target: HLA-A*68:02; assay: IEDB peptide-MHC binding, purified MHC/competitive/radioactivity; filed as Kd, often an IC50 or EC50 that approximates it; ≥ and ≤ were set here for values at or beyond the usual limits of such assays
[25] = target: HLA-A*02:06; assay: as above
[26] = target: HLA-B*51:01; assay: as above
[27] = target: HLA-B*35:01; assay: as above
[28] = target: HLA-B*53:01; assay: as above
[29] = target: HLA-A*26:01; assay: as above
[30] = target: HLA-A*02:02; assay: as above; settings: source organism: Lassa virus Josiah
[31] = target: HLA-A*02:03; assay: as above; settings: source organism: Lassa virus Josiah
[32] = target: HLA-B*08:01; assay: as above; settings: source organism: Dengue virus 2 Jamaica/1409/1983
[33] = target: HLA-A*30:02; assay: as above; settings: source organism: Dengue virus 1 Brazil/97-11/1997
[34] = source organism: Mammarenavirus machupoense
[35] = source organism: Dengue virus 2 Jamaica/1409/1983
[36] = source organism: Lymphocytic choriomeningitis virus (strain Armstrong)
[37] = source organism: Cryptosporidium parvum
[38] = source organism: Vaccinia virus Copenhagen
[39] = source organism: Zaire ebolavirus
[40] = source organism: Escherichia coli O157:H7
[41] = source organism: Sudan ebolavirus
[42] = source organism: Dengue virus 3 Martinique/1243/1999
[43] = source organism: Vaccinia virus WR
[44] = source organism: Dengue virus 4 Philippines/H241/1956
[45] = source organism: Giardia lamblia ATCC 50803
[46] = source organism: Dengue virus 1 Brazil/97-11/1997
[47] = source organism: Pseudomonas aeruginosa UCBPP-PA14
[48] = source organism: Vaccinia virus
[49] = source organism: Lassa virus Josiah
[50] = source organism: Escherichia coli

Sequence: CEEGKLCYLT
- Kd [1, 34]: 1.6 µM
- Kd [2, 34]: ≥ 69.5 µM
- Kd [3, 34]: 8.09 µM
- Kd [4, 34]: 13.2 µM
- Kd [5, 34]: 16.2 µM
- Kd [6, 34]: 14.1 µM

Sequence: SPIVDRKGKV
- Kd [7, 35]: 0.545 µM

Sequence: FENAILSMTI
- Kd [1, 36]: 3.02 µM
- Kd [2, 36]: 1.45 µM
- Kd [3, 36]: 0.00631 µM
- Kd [4, 36]: 0.237 µM
- Kd [5, 36]: 0.388 µM
- Kd [6, 36]: 0.126 µM

Sequence: DFIGKTIGF
- Kd [8, 37]: ≥ 20 µM
- Kd [9, 37]: ≥ 20 µM
- Kd [10, 37]: ≥ 20 µM
- Kd [11, 37]: ≥ 20 µM
- Kd [12, 37]: ≥ 20 µM
- Kd [13, 37]: ≥ 20 µM
- Kd [14, 37]: ≥ 20 µM
- Kd [15, 37]: ≥ 20 µM
- Kd [16, 37]: ≥ 20 µM
- Kd [17, 37]: ≥ 20 µM
- Kd [18, 37]: ≥ 20 µM
- Kd [19, 37]: ≥ 20 µM
- Kd [20, 37]: ≥ 20 µM
- Kd [21, 37]: 0.186 µM

Sequence: YRSGTETKI
- IC50 [22, 38]: ≥ 315 µM

Sequence: ESGAVKYLE
- IC50 [22, 39]: ≥ 209 µM

Sequence: RFDEAIINY
- Kd [8, 40]: ≥ 20 µM
- Kd [9, 40]: ≥ 20 µM
- Kd [10, 40]: ≥ 10 µM
- Kd [11, 40]: ≥ 20 µM
- Kd [12, 40]: ≥ 20 µM
- Kd [13, 40]: ≥ 20 µM
- Kd [14, 40]: ≥ 20 µM
- Kd [15, 40]: ≥ 20 µM
- Kd [16, 40]: ≥ 20 µM
- Kd [17, 40]: ≥ 20 µM
- Kd [18, 40]: ≥ 20 µM
- Kd [19, 40]: ≥ 20 µM
- Kd [20, 40]: ≥ 20 µM
- Kd [21, 40]: ≥ 20 µM

Sequence: LITSTVTGI
- IC50 [23, 41]: 1.64 µM
- IC50 [22, 41]: 17.9 µM

Sequence: WVMKIGIGV
- Kd [24, 42]: 0.00527 µM
- Kd [25, 42]: 0.00138 µM

Sequence: LFTEQAFYT
- IC50 [23, 43]: 68.1 µM
- IC50 [22, 43]: 55 µM

Sequence: TPQDNQLIYV
- Kd [7, 44]: 7.76 µM

Sequence: DYIYLPLLK
- Kd [9, 45]: ≥ 20 µM
- Kd [10, 45]: ≥ 20 µM
- Kd [12, 45]: ≥ 20 µM
- Kd [13, 45]: ≥ 20 µM
- Kd [14, 45]: ≥ 20 µM
- Kd [15, 45]: ≥ 20 µM
- Kd [16, 45]: 2.22 µM
- Kd [17, 45]: ≥ 20 µM
- Kd [18, 45]: ≥ 20 µM
- Kd [19, 45]: ≥ 20 µM
- Kd [20, 45]: ≥ 20 µM
- Kd [21, 45]: ≥ 20 µM

Sequence: DLKDQIAQL
- Kd ([24]; source organism: Homo sapiens): 0.826 µM
- Kd ([25]; source organism: Homo sapiens): ≥ 78.7 µM

Sequence: SPPEVERAVL
- Kd [7, 46]: 0.0197 µM

Sequence: VPTSRTTWSI
- Kd [26, 35]: 0.0525 µM
- Kd [7, 35]: 0.0503 µM

Sequence: STLAGVNVG
- IC50 [23, 39]: ≥ 105 µM

Sequence: IPATLFVWY
- Kd [27, 46]: 0.00339 µM
- Kd [28, 46]: 0.01 µM

Sequence: DTTIGEWAF
- IC50 [22, 39]: 25.5 µM

Sequence: TETKITFAL
- IC50 [23, 38]: ≥ 83.3 µM
- IC50 [22, 38]: 19 µM

Sequence: GLGGDASAY
- Kd [8, 47]: ≥ 20 µM
- Kd [9, 47]: ≥ 20 µM
- Kd [10, 47]: ≥ 20 µM
- Kd [11, 47]: ≥ 20 µM
- Kd ([12]; source organism: Pseudomonas aeruginosa): 0.3 µM
- Kd [14, 47]: ≥ 20 µM
- Kd [15, 47]: ≥ 20 µM
- Kd [16, 47]: ≥ 20 µM
- Kd [17, 47]: ≥ 20 µM
- Kd [18, 47]: ≥ 20 µM
- Kd [19, 47]: ≥ 20 µM
- Kd [20, 47]: ≥ 20 µM
- Kd [21, 47]: ≥ 20 µM

Sequence: EPIEGKVVQY
- Kd [27, 42]: 0.491 µM
- Kd [28, 42]: 5.03 µM
- Kd [29, 42]: 2.73 µM

Sequence: ANLEDLIEW
- IC50 [22, 48]: ≥ 235 µM

Sequence: EPWLSSKPEF
- Kd [27, 44]: 1.38 µM
- Kd [28, 44]: 0.684 µM

Sequence: SPARLASAI
- Kd [26, 44]: 0.532 µM
- Kd [7, 44]: 0.00268 µM

Sequence: TTELRTYTI
- IC50 [23, 41]: ≥ 94.5 µM
- IC50 [22, 41]: 0.925 µM

Sequence: ETQGVTAEI
- Kd [24, 42]: 0.00296 µM
- Kd [29, 42]: 0.282 µM

Sequence: DGQQFYWPV
- IC50 [23, 39]: 57.2 µM
- IC50 [22, 39]: 62 µM

Sequence: YVSAGESSI
- IC50 [23, 38]: 32.7 µM

Sequence: ELLPAVSSG
- IC50 [23, 39]: ≥ 194 µM

Sequence: HALLATSIF
- Kd [27, 46]: 0.0168 µM

Sequence: ALMDCIMFDA
- Kd [30]: 0.00525 µM
- Kd [24, 49]: ≥ 5 µM
- Kd [31]: 0.00962 µM
- Kd [25, 49]: 0.0336 µM

Sequence: TVANNPDDK
- Kd [8, 50]: 1.58 µM
- Kd [9, 50]: ≥ 20 µM
- Kd [10, 50]: ≥ 20 µM
- Kd [12, 50]: ≥ 20 µM
- Kd [14, 50]: ≥ 20 µM
- Kd [15, 50]: ≥ 20 µM
- Kd [16, 50]: ≥ 20 µM
- Kd [17, 50]: ≥ 20 µM
- Kd [18, 50]: ≥ 20 µM
- Kd [19, 50]: ≥ 20 µM
- Kd [20, 50]: ≥ 20 µM
- Kd [21, 50]: ≥ 20 µM

Sequence: MPGTFQTTTG
- Kd [27, 42]: 0.157 µM
- Kd [28, 42]: 0.427 µM

Sequence: YQLLEAVYG
- IC50 [23, 38]: 31.1 µM

Sequence: QSPPIREAV
- IC50 [23, 41]: 38.3 µM

Sequence: RLRMDKLQL
- Kd [32]: 0.175 µM
- Kd [7, 35]: 0.149 µM

Sequence: AAIGLAWIP
- IC50 [23, 39]: ≥ 280 µM
- IC50 [22, 39]: ≥ 131 µM

Sequence: TPHSGEEHAV
- Kd [7, 35]: 0.162 µM

Sequence: HTIENTTANI
- Kd [24, 46]: 0.00175 µM
- Kd [29, 46]: 2.07 µM

Sequence: SLEEEYPPW
- IC50 [23, 39]: ≥ 214 µM
- IC50 [22, 39]: ≥ 179 µM

Sequence: NADIGEWAF
- IC50 [22, 41]: 55.5 µM

Sequence: RLEEEINNQ
- IC50 [23, 48]: ≥ 195 µM
- IC50 [22, 48]: 32.6 µM

Sequence: ELSFEALSL
- IC50 [23, 41]: 23.9 µM
- IC50 [22, 41]: 39.5 µM

Sequence: MPTVIEHLER
- Kd [27, 42]: 0.871 µM
- Kd [28, 42]: 7.05 µM

Sequence: TQETITETA
- IC50 [23, 41]: ≥ 184 µM

Sequence: KPSGSASSM
- Kd [7, 46]: 0.00488 µM

Sequence: KEGAFFLYD
- IC50 [23, 39]: ≥ 3840 µM
- IC50 [22, 39]: 46 µM

Sequence: YKVASEGFQY
- Kd [27, 46]: 3.92 µM
- Kd [33]: 0.135 µM

Sequence: IYTEGLMHN
- IC50 [22, 41]: 4.41 µM

Sequence: GPMPVTHSSA
- Kd [7, 35]: 0.00721 µM

Sequence: IIQAFEAGV
- IC50 [23, 39]: 2.47 µM
